These are literature values, as cited in paper PMC6158072.

In general, pKa refers to the negative logarithm of the acid dissociation constant.

For one series, the system named is Cys. To be noted: not stated (presumably the reduced thiol form).

Regarding “Acetoacetate decarboxylase (not stated (Clostridium acetobutylicum inferred))”, the pKa entry in the series with Lys is given as “around 6”.
Take Peroxiredoxin 5 (Prx5) (Homo sapiens): the pKa with Cys was 5.5.
